Source: the DeepSol protein solubility set

Experiment: soluble on expression in E. coli; label from the status in PepcDB or PDB records
For “MGSDKIHHHHHHMRPRILLYTGKGGVGKTSIAAATGALLSSKGHKTLIISTDPAHSLGDAFGMEIGHSIKQLADNLYGQEVSVVQSINEHWGELKDYLRSLFLSQGLDPVSADEIATLPGFEEASELLYLRNYYYDEEYDTIIMDSAPTGAALQLLSFPEVMTWYMDKLFPISRKTARVARPLLKPFVDIPLPEDAVFENIDLLYRQLTDIRKILTNNDVTSIRLVTNPDNMSYSETKRAYTYLLLYGYPVDAVIINKILSDETGDFFEKMRGSQKDIITEMENSFVDIKIFKARLLQEEPIGIKKLIELGKLIYGDEDPYKVFYKGTPIKYTKNGDRYILKIKMPFAEKEKLNLFNHGGELTIEIANWKRVFYLPESISDKRPVSAEYSNGYLNVILE”, the “soluble on expression in E. coli” value was “not soluble”. In the case of “MKRNLLSSAIIVAIMSLGLTGCDDKKAETETLPPANSQPAAPAPEAKPTEAPVAKAEAKPETPAQPVVDEQAVFDEKMDVYIKCYNKLQIPVQRSLARYADWLKDFKQGPTGEERTVYGIYGISESNLAECEKGVKSAVALTPALQPIDGVAVSYIDAAVALGNTINEMDKYYTQENYKDDAFAKGKTLHQTFLKNLEAFEPVAESYHAAIQEINDKRQLAELKNIEEREGKTFHYYSLAVMISAKQINNLISQDKFDAEAAMKKVSELETLVAQAKEADKGGMNFSFINSAGQYQLEAKKYVRRIRDKVPYSDWDKEQLQDANSSWMVEDSFPRALREYNEMVDDYNSLR”, the “soluble on expression in E. coli” value was “soluble”. With “MKSIISLMAACAIGAASFAAPAFAQDKGSVGIAMPTKSSARWIDDGNNIVKQLQEAGYKTDLQYADDDIPNQLSQIENMVTKGVKVLVIASIDGTTLSDVLKQAGEQGIKVIAYDRLIRNSGDVSYYATFDNFQVGVLQATSITDKLGLKDGKGPFNIELFGGSPDDNNAFFFYDGAMSVLKPYIDSGKLVVKSGQMGMDKVGTLRWDPATAQARMDNLLSAYYTDAKVDAVLSPYDGLSIGIISSLKGVGYGTKDQPLPVVSGQDAEVPSVKSIIAGEQYSTIFKDTRELAKVTVNMVNAVMEGKEPEVNDTKTYENGVKVVPSYLLKPVAVTKENYKQVLVDGGYYKEDQLK” the “soluble on expression in E. coli” value was “not soluble”. For “MDSQKFIDLCKKHVVDFANSQLDYTDQKKISESDIYVVWLAKTLQNNKALLSTNLFDGMYYEVTFNGDKNELYFDAYKKWRNIRFDVTEGGDQNG”, the “soluble on expression in E. coli” value was “not soluble”. In the case of “MAHHHHHHMPLIEAHLPALRPYIRYPVVAATGSFDVGRLQQYATVCPATYVIETITEALAELTRRMKWSFDLCGNFRDAADFAARGISFVALERATGNIAAGASSFCICDGGVEVGVETAESHQRRGLALACSARLILERLKHGLYPNWDAHVPHSAHLAEKLGYTRGTPYKAYVDELQT”, the “soluble on expression in E. coli” value was “not soluble”. In the case of “MRDIGGSMSSASTSATIVKRSPPNDTSTSSGVSCDVSPNSMTSPSSGSDQNQNNNSLNKCKCCPYGYHIDLGFVSYAQNVSNGFVSRQGTPTNMTLRGNGADRHLMSPLLDNSIFSDSLDNLMSDFDDVLAPHKEVEKKKTVQDIRSRMQGGYNSDYTTYRRGPPEIPRRAHFEQAKPPPLSRPINLGFSGSRSNTPTQRFNAPNGTGNGYSTALAKTISEIRARNAESPFPDSRVGTPIDLGLHQQNNGHVTPSRFANNRYDDLPPTPTPTFRRAPSQGDLPRGFSTAPSTGPGDFASLRRGREFALPPEQEHHSRRFFSASPKLPRRGLQAGPSIDVESHFTYAQTQNGQKVLARTQSTSTSPPPQAPASAFEPVKPLSNGSPSPTHQVQKPIVTRSIAVSTGPLPAPKPCGECAGLRKELFLAVEKIPPPPPESCHVSTSTVLLEFADQSVGSEPIKHCHVALGTEPTSTREVGTVPVTVRSLHIDTQTDPAASTVDAACSPVLFETQEEAVKVTVAASSSAAAADCEECLKRQDVFTRNVGVGACSISDKICVSCDNQVVEADENEAPGFKTDTKDDQKQRDFEIAKANAVKKLLTNEQKSNFQRGTAVSKSARYDRKRSVDDLDYIVDKKNATSPATSSQEAPPTVPDASESPLTTKVVLKKEVFIEPPKQMLPDPIPARIPRPKISKWAVTSEEEAAETPDEQEEAQDRLTPLRSDMRQLGNRWNRNQVTTASNTTPHLPYSGATSQEDVSDSDAESDCSAHSDATFEVNDDVFDAAPFEVSDRLREALENFNSSILEPGSVAEETVEWSAKLVRHVWMTTAGNSSSRYENVDRFVAELGNLGPQILHMVVNFCDQNGNTALHYAVSHANFAVVSSILDSGECDLDAPNRAGYTAVMLAALSQLDDDMEKAVVHRLFQMGNVNAKASQHGQTALMLAVSHGKKTTTELLLACGANVNEQDQDGSTALMCAAEHGHKELVKMLLAENLVNASLTDVDNSTALSIALENDHREIGVMIYAYLNYGRLDISGPTSTI”, the “soluble on expression in E. coli” value was “not soluble”. In the case of “MSLTDRTIGEAAELLGVTTRTLRHWDSIGLLQPSWRTTTDYRLYTEDDVERALQILIYRAAGIGLKDIAEVLDQPDSANQHLRRQRELLVEQIGQLHRMVRAVDEILGKDAISVKEKIEIFGEDLPKYQEEAFQRWGDTPEWKESQKIQEKMTKEDFQRAKDEHEGFVEKLIDASLRGIAPGSAEGNELALAHRASIGQWYTVSANKQVILARMYVEDERFNETYKGHASYLLTLIEALAQVEGVDLENEGHHHHHH”, the “soluble on expression in E. coli” value was “not soluble”. With “GPGSDGVWLEELEMEPSQYLPDLKEDELLKTPAVMVNLNRPMPEVLQELSKHPVRTRLSLTGTIIVARDSAHARMREMLEAGKPLPQYMKEHPVYYAGPAKQPDGLPSGSFGPTTAGRMDPFVDLFQSHGGSMVMLAKGNRSKQVTKACHKYGGFYLGSIGGPAAVLAQNAIKKVECLDMKDLGMEAVWRIEVENFPAFIVVDDKGNDFFEQL” the “soluble on expression in E. coli” value was “soluble”. With “RIRKEPPVYAAGSLEEQWYLEIVDKGSVSCPTCQAVGRKTIEGLKKHMENCKQEMFTCHHCGKQLRSLAGMKYHVMANHNSLP” the “soluble on expression in E. coli” value was “soluble”. With “KVQTDPPSVPICDLYPNGVFPKGQECEYPPTQDGRTAAWRTTSEEKKALDQASEEIWNDFREAAEAHRQVRKYVMSWIKPGMTMIEICEKLEDCSRKLIKENGLNAGLAFPTGCSLNNCAAHYTPNAGDTTVLQYDDICKIDFGTHISGRIIDCAFTVTFNPKYDTLLKAVKDATNTGIKCAGIDVRLCDVGEAIQEVMESYEVEIDGKTYQVKPIRNLNGHSIGQYRIHAGKTVPIIKGGEATRMEEGEVYAIETFGSTGKGVVHDDMECSHYMKNFDVGHVPIRLPRTKHLLNVINENFGTLAFCRRWLDRLGESKYLMALKNLCDLGIVDPYPPLCDIKGSYTAQFEHTILLRPTCKEVVSRGDDY” the “soluble on expression in E. coli” value was “soluble”. For “MRLFTPEAMREADRKAVERGYPSLLLMEWAGMKAARVYLELFGKAPALVLAGKGNNGGDGLVLARHLLLEGVGVRVYAAGGQTGDALLALQALLAHGVEVRPLEEASFREGEVVVDALFGTGLKGPLTDFYAELVERVNRAGLPVLALDLPSGLPFSPHVRATATVAFAALKTPHLFQREACGKLYLAEIGLPKPLLEREDLPEVASPEALRPLLPRRPLTAHKGSVGRVGVLGGYQGEDLRYAGAPLLAALGAYRMGAGLVHLVAPEGTPLEPLEAVFHPVPSPALPPLKAEALAVGMGGGPWGRAWALKALEARLPTVLDADALHPEVAEAYRKAGVPAVLTPHAGEAGRLLGISPEEVAKDPLGAARALAERTGLAVVLKGNPTVVAEGERLSVNPTGNPALATGGTGDVLSGAIAALLAAGLRPFDAARLGVFLHGLAGDLLAEEKGVGLLAREVAEALPRARRLLQEGRVPPAFFPR”, the “soluble on expression in E. coli” value was “soluble”. For “MGSDKIHHHHHHMTPSNVNSAGYKVIKISEFLSKKEYLDKKLVIPVYQRPYRWTAKNIVDLLSDLYYQCKRIGHRLGSPDNPDNFYRLGTVVLHQYVNNGSHQTNADLVDGQQRTLTLLLIMKSALESNRFTEQFNSFTPLEIELPDCSETQQNLSRNYELIRRHVNSPEFTSEVLDFLLNHCEVVQVTLHYLSEAFQFFDSQNARGLDLNPHDLLKAFHLREFPDSESLLKQNIVECWEQQNTKSLEVLFANYLYPIRRWSFGKQAVHFSKSEVNVFKGMKLDSDSYPFQENLRIVHNTVDSYNHHSHRLLDQQAMAYPFQLTQTLINGRRFFEWVTHYQEMIQPLLNKTIDSDSQKWLYTITSCHHTETGTSIKEVAKRPTAFNIFLVLNTDLPEYSYKGRSRRGDQYVRRMFDALVLCYYDRFGSHNLPRAIEYIFIWAYSLRLEKKSVYLESIEKHIGTDNLFERLQQSLSSVDFLSKPLPQPKKVDVTNVEGIKELFTKLGYLPT”, the “soluble on expression in E. coli” value was “not soluble”.
